Results from the DeepSol protein solubility set.

Assay: soluble on expression in E. coli; label from the status in PepcDB or PDB records

| Sequence | soluble on expression in E. coli |
| --- | --- |
| MPITKIHARQIYDSRGNPTVEVDLFTEKGVFRAAVPSGASTGVHEALELRDGDKAVHLGKGVLKAVSNINEKIAPALIAKGFDVTAQKDIDDFMMALDGSENKGNLGANAILGVSLAVAKAGAVHKGLPLYKYIAELAGTGKVVLPVPAFNVINGGSHAGNKLAMQEFMILPVGASSFAEAMRMGSEVYHHLKAEIKKRYGLDATAVGDEGGFAPNIQDNKEGLDLLNTAIDKAGYTGKISIGMDVAASEFFKDGKYDLDFKNPASDSSKWLSGEQLTELYQSFIKEYPVVSIEDAFDQDDWDNWGKFHGATSIQLVGDDLTVTNPKRIQTAIDKKSCNCLLLKVNQIGSVTESIEAAKLSRANGWGVMVSHRSGETEDTFIADLVVGLATGQIKTGAPCRSERLAKYNQLLRIEEELGADAVYAGHNFRNPQV | not soluble |
| MPKFVVIELNDDAATIDLLSYCVKKNFERVSLLTRLEDHPYLRDDQDVVQDDTQSQGTDGMLLQLNDEERQRLMKMISTPGPQTLSMERIQMAPGQGQHILQQHQIPSTSSYTNNSFIYIKSDPQYKDEPQQQSNQFDATVNSVAHGQAGLSTLEMFACNGSPNGGDVLRRKTPSRKAEDSIKATCKVCGHDVMYSPQRTWNLMRHVWIMHQSSKPNQCSICGYSHIKPYVRKHIESQHKHDSNATIIDLKSPELEAEWSQLLDQCFGVTYRKWKHHKEDTQHTGGLLFDDDELRG | soluble |
| MPKGGASCLTPVYAGIRDDLNSFLRAYLQFESVRFFDYKVMFENRGMVGLFTGRHNSAEIIEFNECLLVHCLPYMEECVCPGTPRSLKERLFGLYSLYTFYYIQQEKHVVKVRMDPDSSRNFRRFAQFLLTEKIYDAYALCQKLLEDKAIKQVAFISIHDPSHFKRFYTDDKVSGVSIRTNLNDPLVNVKALVEQFDALGVIHKEYSRLKMKLGITSWMKLKDPIEELKKIIKTSLQAVESSSGVDEIVHTDHSAQQLASRGMQRSSIKDQAHSAALKFSRTRRHRSVKPVIVPAETFEYAPDPKKKKEAQETMPVSGRNGRKRGRPKSVPKSKVSNPARILYEKLAEDMISEHLSTDLTEQEAFTDRPQSSLEPQKNELFNWDAAPQDAQISNQTTEPSCGEDIFIEDFGEFKSQDDVMFTAEDFNDSLIPPLADSDSDLEIDA | not soluble |
| MPKLPRIDFYFDVISPYSYIAFEVFQKLETQWKGVTIRYIPFFLGAVMKESGNRPPAMLPARSIMMMTDLKRTAKFWDIPLTPPPLFMEWIKKYRTTGAMKVLLVLQEQDKELMLRAAREMWVRLWSRSEKIFEDQDFVEVLKAVGVKNPEQIVEKSKDEKYIKILMENTNKGVDLMAYGAPWINVHTEDGSEHSFFGSDRFHLIADLLQQPQPLPDRLFGQKSKL | not soluble |
| MPKTQGLSPESLISQFARCEEGWCVQYHDVILASAFQPVISITHKRVVGYEALVRATDANNAQISPDTLFARAQARGETILLDRLTRCLHVANFSEQDTGSCWLFLNVLPQMFDAGIAPSVFIEALCAHFALPPTRVVLEVIEQPSRNEPALARTLDMIQHGDFLIAVDDFGTGFSNFDRIWQIKPDIVKLDRSILERSLAASDAHRIVHHLVTMLHHAGTMVLAEGVENEDALQILMDADVDFVQGFCFGLPDPSLERARRAAPARIETAWQRFAERVKERRGDVVHPGFDTIERIVLAGAADYAQARDLRGAAQRLLTNPIVRRVFVAEANGEQVEPSVTNETPDTPSATTRRLAPLLPELHCNWSRRAYFQRAVAAPGRVALMGPHFSLTDGRDCYTAAVAIHLGTTLKVFCVDFDFSSYGDGQ | not soluble |
| MPLGLLWLGLALLGALHAQAQDSTSDLIPAPPLSKVPLQQNFQDNQFQGKWYVVGLAGNAILREDKDPQKMYATIYELKEDKSYNVTSVLFRKKKCDYAIATFVPGSQPGEFTLGNIKSYPGLTSYLVRVVSTNYNQHAMVFFKKVSQNREYFKITLYGRTKELTSELKENFIRFSKSLGLPENHIVFPVPIDQCIDG | soluble |
| MPLHHLTRFPRLEFIGAPTPLEYLPRLSDYLGREIYIKRDDVTPIAMGGNKLRKLEFLVADALREGADTLITAGAIQSNHVRQTAAVAAKLGLHCVALLENPIGTTAENYLTNGNRLLLDLFNTQIEMCDALTDPDAQLQTLATRIEAQGFRPYVIPVGGSSALGAMGYVESALEIAQQCEEVVGLSSVVVASGSAGTHAGLAVGLEHLMPDVELIGVTVSRSVAEQKPKVIALQQAIAGQLALTATADIHLWDDYFAPGYGVPNDAGMEAVKLLASLEGVLLDPVYTGKAMAGLIDGISQKRFNDDGPILFIHTGGAPALFAYHPHV | not soluble |
| MPLPPHLSDRVVALQPSLTLAISARAKALQQEGRDICSLSAGEPDFNTPEFIIDATVKALRDGITRYGPAAGDPELREAIATKLSKENTVPTNAEQVLVTNGGKQAIFNLFQVILNPGDEVLIPAPYWLSYPEMARLAGAKVTTLPSTPENGFCLDLNNLEASIGPKTRLLLLNSPGNPTGRVMARKELETLADLLRDHPQILVMSDEIYEFILEEGQQHYSFSAIAPDLSNRTFIVNGFAKGWAMTGWRLGYLAGPADAVKAATALQSQSTSNVCSFAQRGALAALQGSRECVKKMVKSYNTRRELLTSGLLSLEGMSLVPPKGAFYAFPKLPPESLDSVSFCEQALENHGLAMVPGAAFGDDSCVRLTCAVSPETICDGLERLRKALKQS | not soluble |
| MPLVSMKEMLIDAKENGYAVGQYNINNLEFTQAILEASQEENAPVILGVSEGAARYMSGFYTIVKMVEGLMHDLNITIPVAIHLDHGSSFEKCKEAIDAGFTSVMIDASHSPFEENVATTKKVVEYAHEKGVSVEAELGTVGGQEDDVVADGIIYADPKECQELVEKTGIDALAPALGSVHGPYKGEPKLGFKEMEEIGLSTGLPLVLHGGTGIPTKDIQKAIPFGTAKINVNTENQIASAKAVRDVLNNDKEVYDPRKYLGPAREAIKETVKGKIKEFGTSNRAK | not soluble |
| MPNCPNCQKPVYFAERVSSLGKDWHRPCLKCANKACGKTLSAGSHSEHEGKPYCNRCYGALFGPKGYGHGGTESHTFLQGTTGN | soluble |
| MPNLNAVIAQNISKGDVIWVPYRKDPMWPALVNNAYPKKVSYSFFPLAPGVDETKRSRFSCAPKLTYALVTTEPLPENANSDLKKAHRAACEYLSSNGKTRGSNIQSLGEAAGGSEKMKKMNGEVTKNKTGKPEKRKKKVDSEQQENEEDDEDLMSPVSKKPSSSERSTPSGSQQQPPITEEQSKSMMKMIDDRFEVLINEIWKSDEVAQSKNQTMKDKMTIKLKNNQFLKESDYDIVFERIFNFIRMQNPSLSFISTFNITSSHIIPHILITCYSACRNLDYQTSKEIFYQLNTRVLGLDSSMSIPVTDHLEELCRLACDESDAIQILENEHGDKISKDGTATQTRGNVFEEMR | not soluble |
| MPNVVGVQFQKAGKLEYYAPNQLDVEVGDWVVVQSKRGIEIGHVKFPLREVDVEDVTLPLKNIIRKMNEDDQETYYRNERDANDALELCKKVVKDQQLDMRLVNCEYTLDKSKVIFNFTADDRIDFRKLVKVLAQNLKTRIELRQIGVRDEAKLLGGIGPCGRSLCCSTFLGDFEPVSIKMAKDQNLSLNPTKISGACGRLMCCLKYENDYYEEARTQLPDVGDMIQTPDGHGKVIGLNILDISMQVKIEGLEQPLEYKMEEIEVLNLEHHHHHH | not soluble |
| MPNYRGRHQTRQNWSSKPREEHSPSKGAYRDKIWSGPVSEVARQQTVYDWVTTGAYSLGSPDSWPSYPDEIILMNESRNAQTSRMSRRSATPGPRLSQDRRTRTTAPAVAPIPFQRAQPRVEVERQRIDEPVAQDLIIDDGNGTNNSNDSSICGFVEESEELVYPQWVYYLYPLIPTAPNCNNEKSYKEGGNWYNSP | not soluble |
| MPPFYKRLHRKKDGRELFLYGLMPLEGPPLPEDAEPFRPAPHLRYHPLRGEWVVYAAHRQGRTFLPPKEHCPLCPSREGGFPTEIPFPSFQVAVFENRFPSFVEEAPPPPEGLPVPAGRALGRCEVVVYTPAHTGSLATLTEEERLLLAWAWRDRYEALYALPGVRFVMPFENRGEAVGVTLHHPHGQIYAYPFVPPVLERESQAFRERPVLLRLFPSLGPYVVDEEEGFLAFVPPFARYPFEVWVAPVERHPGPWTFSEGEMAAFARLLGRVVARYDALFGEPFPYVMVFHAAPLGEEATFHFHVEFYPPRRTRDKLKFLAGTELGAGTFVVDALPEETAKALRAALP | soluble |
| MPPGKKGQASSLGQNKVHFHKYNLILLPPDTISSHSSEERGLLWKHRLSQARTSYSSHVRILVRIRKMWEKTPHMRIGNIFFKKREL | not soluble |
